Experimental data published in paper PMC11078181, “Genomic context– and H2AK119 ubiquitination–dependent inheritance of human Polycomb silencing” (Science Advances, 2024).

Biological target: T1, Strep-RBBP7 (UniProt Q16576 1-425)
T1 construct: called full-length in the results; also called full-length RBB7; source: HEK293FT, transiently transfected, purified (Strep-Tactin Sepharose, eluted with desthiobiotin)
Test: pull-down; GST or GST-BCORL(S1474-G1644) (0.1 μM) on Glutathione Sepharose 4B with Strep-RBBP7 (0.1 μM), lysis buffer with 0.1% Triton X-100, overnight at 4°C; stain-free SDS-PAGE
Conditions: both partners purified

T1 sequence (Q16576 whole entry): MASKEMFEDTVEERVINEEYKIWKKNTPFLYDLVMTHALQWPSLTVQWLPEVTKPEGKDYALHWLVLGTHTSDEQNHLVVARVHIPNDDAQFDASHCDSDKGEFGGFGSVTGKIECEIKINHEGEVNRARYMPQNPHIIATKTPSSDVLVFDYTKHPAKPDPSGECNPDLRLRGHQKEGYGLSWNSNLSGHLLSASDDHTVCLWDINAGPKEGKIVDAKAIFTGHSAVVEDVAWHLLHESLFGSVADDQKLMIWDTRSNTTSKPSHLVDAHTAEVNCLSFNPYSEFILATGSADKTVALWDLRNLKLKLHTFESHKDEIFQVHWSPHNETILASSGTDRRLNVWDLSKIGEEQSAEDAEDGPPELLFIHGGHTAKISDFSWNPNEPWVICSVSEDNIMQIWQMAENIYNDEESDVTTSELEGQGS

B1: GST-BCORL(S1474-G1644) (domain or fragment, UniProt Q5H9F3 1474-1644, looked up)
chain: SESPTARQIPPEARRLIVNKNAGETLLQRAARLGYKDVVLYCLQKDSEDVNHRDNAGYTALHEACSRGWTDILNILLEHGANVNCSAQDGTRPVHDAVVNDNLETIWLLLSYGADPTLATYSGQTAMKLASSDTMKRFLSDHLSDLQGRAEGDPGVSWDFYSSSVLEEKDG
notes: also called GST-BCORL fragment; source: E. coli BL21, purified (Glutathione Sepharose 4B, eluted with glutathione, dialysed); not shown: GST, N-terminal, kept
binding result: binds
